The values below come from patent US20250332297A1, “DLL3-SPECIFIC BINDING CONSTRUCTS AND THEIR USE IN RADIOTHERAPY” (MOLECULAR PARTNERS AG, priority 2024, published 2025).

Substitutions are numbered along the chain they refer to. Where two headings read alike, the source gives them in different places.

One data set addresses T1, human DLL3 (Homo sapiens, UniProt Q9NYJ7).
T1 construct: (Q9NYJ7, Gene ID: 10683, residues 27 to 466; purchased from Evitria); 3C protease recognition site (C); Fc knob into hole (C); purchased Evitria
T1 sequence (Q9NYJ7 27-466): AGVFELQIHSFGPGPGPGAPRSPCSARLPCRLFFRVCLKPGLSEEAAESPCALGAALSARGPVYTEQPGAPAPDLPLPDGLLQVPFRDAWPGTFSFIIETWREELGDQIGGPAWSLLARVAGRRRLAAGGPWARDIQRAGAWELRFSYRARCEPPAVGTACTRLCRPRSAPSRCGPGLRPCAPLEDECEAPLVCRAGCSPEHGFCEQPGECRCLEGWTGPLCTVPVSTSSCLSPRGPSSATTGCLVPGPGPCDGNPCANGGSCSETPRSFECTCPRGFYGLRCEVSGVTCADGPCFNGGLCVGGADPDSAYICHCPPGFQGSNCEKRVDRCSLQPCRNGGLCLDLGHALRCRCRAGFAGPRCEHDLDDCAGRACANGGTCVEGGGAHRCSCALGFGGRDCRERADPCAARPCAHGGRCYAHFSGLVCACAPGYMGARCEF
The experiment in a line: SPR multi-trace analysis, binding to human DLL3 (Example 1). The conditions noted are these: immobilized bio-DLL3 (hDLL3 ECD), PBS pH 7.4, 1:1 Langmuir, Table 1. The procedure:
Kinetic binding parameters and binding affinities of two domain (2D) ankyrin repeat proteins comprising an ankyrin repeat domain with binding specificity for DLL3 and an ankyrin repeat domain with binding specificity for serum albumin were determined by surface plasmon resonance (SPR) multi-trace analysis.
In brief, a SPR assay was used to determine the binding kinetics to the target human DLL3. The data were generated using BioRad ProteOn instrument in SPR running buffer (PBS, pH 7.4 containing 0.005% Tween 20®). […] The chip was coated with biotinylated target (bio-DLL3) to reach a signal intensity of 1780 RU. All analytes (3-fold dilution ranging from 300-33.3 nM) were injected in succession for 240 s (100 μl/min) and dissociation was recorded for 10800 s (100 μl/min). Each injection was followed by a regeneration step with 16 mM H3PO4 for 18 s. […] The bio-DLL3 target used was as described in U.S. 63/550,951, i.e. the extracellular domain (ECD) of human DLL3 protein (Q9NYJ7, Gene ID: 10683, residues 27 to 466; purchased from Evitria) linked via an Avi-tag (for site-directed biotinylation), followed by a 3C protease recognition site, to a Fc knob into hole (hDLL3 ECD-Avi-Fckih).

A further data set concerns the target T2, mouse serum albumin (Mus musculus, UniProt P07724).
T2 construct: purchased Sigma-Aldrich
The experiment in a line: SPR binding to mouse serum albumin (Example 1). The conditions noted are these: immobilized MSA, 1:1 Langmuir, Table 2. Here is the method: (§1) Similarly, a SPR assay was used to determine the binding kinetics to human or mouse serum albumin. […] All analytes (3-fold dilution ranging from 1000-12.35 nM) were injected in succession for 240 s (25 μl/min) and dissociation was recorded for 600 s (25 μl/min). […] The obtained SPR traces were used to determine the ankyrin repeat protein-serum albumin interaction parameters, summarized in Table 2.
For orientation: Surface plasmon resonance follows binding to a sensor surface in real time, without labels.

Data set [1] has as its target T3, human DLL3 expressed on HEK293T-huDLL3 cells (Homo sapiens, UniProt Q9NYJ7).
T3 construct: expressed in transfected cells; host or cells: HEK293T-hDLL3
T3 sequence (Q9NYJ7 27-618): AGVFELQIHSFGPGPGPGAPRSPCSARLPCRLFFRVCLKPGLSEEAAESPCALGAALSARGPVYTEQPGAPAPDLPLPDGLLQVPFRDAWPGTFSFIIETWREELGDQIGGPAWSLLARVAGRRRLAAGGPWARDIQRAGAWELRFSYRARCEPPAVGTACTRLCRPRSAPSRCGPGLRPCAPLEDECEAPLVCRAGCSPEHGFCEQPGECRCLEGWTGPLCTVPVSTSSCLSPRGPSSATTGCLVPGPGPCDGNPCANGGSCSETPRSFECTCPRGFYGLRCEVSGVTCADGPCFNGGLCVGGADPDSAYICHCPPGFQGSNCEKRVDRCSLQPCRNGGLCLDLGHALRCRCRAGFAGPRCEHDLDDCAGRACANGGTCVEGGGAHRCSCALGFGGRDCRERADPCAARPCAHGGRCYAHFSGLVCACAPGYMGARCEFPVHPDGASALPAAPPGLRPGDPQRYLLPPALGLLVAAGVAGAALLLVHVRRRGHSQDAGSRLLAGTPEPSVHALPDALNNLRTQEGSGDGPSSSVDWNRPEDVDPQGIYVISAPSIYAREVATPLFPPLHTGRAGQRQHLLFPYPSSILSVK
The experiment in a line: Cell binding titration on HEK293T-hDLL3 cells. The data set is classed as cell-based. The conditions noted are these: absence of human serum albumin, read-out: Cell binding EC50, w/o HSA. Here is the method: Cell binding titration assays were performed for selected His-tagged single domain (1 D) and two domain (2D) designed ankyrin repeat proteins to determine binding to human DLL3 expressed on HEK293T-huDLL3 cells in absence and presence of human serum albumin. Controls included Rova antibody as a positive control and a non-binding DARPin comprising SEQ ID NO: 21 as a negative control. HEK293T-hDLL3 cells are HEK293T cells that were stably transfected to express human DLL3 on their surface.
In brief, 1×10^5 cells/well were resuspended in 100 μl DARPin dilution (500 nM, 1:5 serial diluted) and incubated for 1 h at 4° C. Cells were washed twice with PBS and resuspended in 100 μl anti-DARPin antibody (rabbit anti-DARPin 1.4.8) and LIVE/DEAD fixable cell stain (1:1000, Thermo Fisher #L34957). This step was performed in absence and presence of […] Human Serum Albumin (CSL Behring #150570). After incubation and washing, cells were incubated with detection antibody for 30 minutes (Goat anti-Human IgG (H+L), AF647, Thermo Fisher #21445). Cells were fixed (Paraformaldehyde Solution, LucernaChem) and acquired at Attune N×T (Thermo Life Technologies). Raw fcs files were exported and analyzed using FlowJo software. MFI values of live AF647-positive cells were exported from FlowJo and plotted using GraphPad Prism software. None of the tested ankyrin repeat proteins show binding to the HEK293T wildtype cells.

Data set [2] addresses T3, human DLL3 expressed on HEK293T-huDLL3 cells. Description: Cell binding titration on HEK293T-hDLL3 cells. Format: cell-based. As to conditions: presence of human serum albumin (10 μM in FIG. 9 legend, 10 pM in the source), read-out: Cell binding EC50, with HSA.
The next data set deals with human serum albumin (Homo sapiens, UniProt P02768). The experiment in a line: SPR binding to human serum albumin (Example 1). Also on record: purchased CSL. The conditions noted are these: immobilized HSA, 1:1 Langmuir, Table 2. The procedure:
as §1

T2 sequence (P07724 25-608): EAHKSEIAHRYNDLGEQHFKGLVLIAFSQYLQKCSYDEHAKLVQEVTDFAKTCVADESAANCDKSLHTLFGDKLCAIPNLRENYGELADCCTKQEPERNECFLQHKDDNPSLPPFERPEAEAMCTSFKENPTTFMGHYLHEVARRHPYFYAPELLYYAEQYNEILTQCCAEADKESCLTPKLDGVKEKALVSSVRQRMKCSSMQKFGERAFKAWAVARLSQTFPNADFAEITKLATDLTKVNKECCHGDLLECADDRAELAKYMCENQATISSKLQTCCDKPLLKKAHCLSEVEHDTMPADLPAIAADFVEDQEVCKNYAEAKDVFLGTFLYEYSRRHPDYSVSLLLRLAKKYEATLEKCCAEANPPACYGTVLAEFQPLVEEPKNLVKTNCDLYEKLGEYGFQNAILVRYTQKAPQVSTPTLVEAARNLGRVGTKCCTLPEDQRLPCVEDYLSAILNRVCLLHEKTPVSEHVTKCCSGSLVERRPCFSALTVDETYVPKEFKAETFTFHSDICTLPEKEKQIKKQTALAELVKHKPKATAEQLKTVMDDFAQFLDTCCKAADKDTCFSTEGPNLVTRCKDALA

B1: MAM279: Two domain (2D) ankyrin repeat protein: serum albumin-specific domain (SEQ ID NO: 7), PT linker, DLL3-specific domain of MAM093 (protein)
chain: DLGKKLLEAARAGQDDEVRELLKAGADVNAKDYFSHTPLHLAARNGHLKIVEVLLKAGADVNAKDFAGKTPLHLAADAGHLEIVEVLLKAGADVNAQDIFGKTPADIAADAGHEDIAEVLQKAAGSPTPTPTTPTPTPTTPTPTPTGSDLGKKLLAAAAQGQDDEVRELLKAGANVNAKDLFGYTPLHLAAWRGHLEIVEVLLKAGADVNAKDAAGETPLHLAAWFGHLEIVEVLLKAGADVNAQDLQGKTPADLAAKEGHEDIAEVLQKAA
modifications: Ankyrin repeat protein (MAM279)
On to B1, for which, in the data set with human DLL3, the Kd (commonly the free concentration of one partner at which half of the binding sites on the other are occupied at equilibrium, for simple one-to-one binding) came out at 0.616 nM; the koff (usually the rate constant with which the complex falls apart) turned out to be 1.44e-05 s⁻¹; the on-rate (kon) (as a rule, a measure of how fast the partners come together) was 23300 M⁻¹ s⁻¹. Besides, in the data set with mouse serum albumin, the Kd was determined as 367 nM, the “Koff MSA” value amounted to 0.0335 s⁻¹ and the “Kon MSA” value stood at 91240 M⁻¹ s⁻¹. For the same molecule, the EC50 in data set [1] stood at 14.9 nM. Moreover, in data set [2], the EC50 amounted to 16.3 nM. Moreover, in the data set with human serum albumin, the affinity, expressed as Kd, was 75 nM; the “Koff HSA” value amounted to 0.00923 s⁻¹; the “Kon HSA” value was 123000 M⁻¹ s⁻¹.

B2: MAM283: Two domain (2D) ankyrin repeat protein: serum albumin-specific domain (SEQ ID NO: 7), PT linker, DLL3-specific domain (SEQ ID NO: 3) (protein)
chain: B1 chain with Q160D, K171Q, N175D, K204E, K237E, L247V, K270Q
modifications: Ankyrin repeat protein (MAM283)
In the data set with human DLL3, B2 displayed a Kd of 0.953 nM, a koff of 1.79e-05 s⁻¹ and a kon of 18800 M⁻¹ s⁻¹. In the data set with mouse serum albumin, the Kd amounted to 507 nM, the “Koff MSA” value is 0.0378 s⁻¹ and the “Kon MSA” value was 74680 M⁻¹ s⁻¹. Further, in data set [1], the EC50 came to 22.1 nM. The EC50 in data set [2] was 18.4 nM. Also, in the data set with human serum albumin, the Kd stood at 103 nM, the “Koff HSA” value came out at 0.00924 s⁻¹ and the “Kon HSA” value was 89500 M⁻¹ s⁻¹.

B3: MAM160: Two domain (2D) ankyrin repeat protein: serum albumin-specific domain (SEQ ID NO: 7), PT linker, DLL3-specific domain MAM120 (protein)
chain: DLGKKLLEAARAGQDDEVRELLKAGADVNAKDYFSHTPLHLAARNGHLKIVEVLLKAGADVNAKDFAGKTPLHLAADAGHLEIVEVLLKAGADVNAQDIFGKTPADIAADAGHEDIAEVLQKAAGSPTPTPTTPTPTPTTPTPTPTGSDLGTKLLSAAADGQDDEVRELLQAGADVNAKDLFGYTPLHLAAWRGHLEIVEVLLEAGADVNAKDAAGLTPLHLAAWFGHLEIVEVLLEAGADVNAQDVQGVTPADLAAKEGHEDIAEVLQQAA
modifications: Ankyrin repeat protein (MAM160)
In the data set with human DLL3, B3 displayed a Kd of 1.99 nM, a koff of 2.01e-05 s⁻¹ and a kon of 10100 M⁻¹ s⁻¹. Also, in the data set with mouse serum albumin, the Kd was 336 nM, the “Koff MSA” value worked out at 0.0271 s⁻¹ and the “Kon MSA” value turned out to be 80430 M⁻¹ s⁻¹. Further, the EC50 in data set [1] was 18.9 nM. Further, in data set [2], the EC50 stood at 36.6 nM. Further, in the data set with human serum albumin, the Kd worked out at 95.9 nM, the “Koff HSA” value stood at 0.0105 s⁻¹ and the “Kon HSA” value came out at 110000 M⁻¹ s⁻¹.

B4: MAM282: Two domain (2D) ankyrin repeat protein: serum albumin-specific domain (SEQ ID NO: 7), PT linker, DLL3-specific domain (SEQ ID NO: 2) (protein)
chain: DLGKKLLEAARAGQDDEVRELLKAGADVNAKDYFSHTPLHLAARNGHLKIVEVLLKAGADVNAKDFAGKTPLHLAADAGHLEIVEVLLKAGADVNAQDIFGKTPADIAADAGHEDIAEVLQKAAGSPTPTPTTPTPTPTTPTPTPTGSDLGKKLLAAAREGQDDEVRELLKAGADVNAKDIWGQTPLHIAAWFGHLEIVEVLLKAGADVNAKDQTGHTPLHLAAKFGHLEIVEVLLKAGADVNAQDLLGRTPADLAAEEGHEDIAEVLQKAA
modifications: Ankyrin repeat protein (MAM282)
In the data set with human DLL3, B4 displayed a Kd of 3.03 nM, a koff of 3.79e-05 s⁻¹ and a kon of 12500 M⁻¹ s⁻¹. In the data set with mouse serum albumin, the Kd is 335 nM, the “Koff MSA” value stood at 0.0354 s⁻¹ and the “Kon MSA” value stood at 105900 M⁻¹ s⁻¹. Further, the EC50 in data set [1] came out at 21.2 nM. Besides, the EC50 in data set [2] came out at 19.6 nM. For the same molecule, in the data set with human serum albumin, binding was put at a Kd of 74.3 nM, the “Koff HSA” value stood at 0.00889 s⁻¹ and the “Kon HSA” value was 120000 M⁻¹ s⁻¹.

B5: Rova: Rova antibody, DLL3-binding benchmark antibody used as positive control and comparison (antibody, chains of the INN, looked up, V domains shown)
VH: QVQLVQSGAEVKKPGASVKVSCKASGYTFTNYGMNWVRQAPGQGLEWMGWINTYTGEPTYADDFKGRVTMTTDTSTSTAYMELRSLRSDDTAVYYCARIGDSSPSDYWGQGTLVTVSS
VL: EIVMTQSPATLSVSPGERATLSCKASQSVSNDVVWYQQKPGQAPRLLIYYASNRYTGIPARFSGSGSGTEFTLTISSLQSEDFAVYYCQQDYTSPWTFGQGTKLEIK
As for B5, the EC50 in data set [1] turned out to be 0.1 nM; in data set [2], 0.3 nM.
